B1: FUNDC2 (parent)
chain: YIKVDWQRVEKDMKKAKEQLKIRK
B2: NEK8 (parent)
chain: VTIKHVACGDFFTACLTDRGIIMT

Variants of: B1
Assay: protein stability index of a GFP-peptide fusion (GPS, HEK-293T) (PSI 1-6); higher = more stable
Conditions: c terminus: a fixed tail appended
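Also: lentivirally expressed fusions sorted by FACS into six bins by GFP to DsRed ratio, PSI derived from sequencing read proportions per bin multiplied by bin number.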

Protein stability index, by site and new letter:
K24: N 2.07; M 1.31; Y 1.38
Y1: N 3.7
W6: R 2.97
M13: L 1.63
E18: P 2.48
V4: D 1.99
D12: L 2.8; M 2.97
K11: Q 2.12; M 1.57
R23: H 1.9; M 1.97
V9: S 1.91; W 1.99
K21: D 1.86; W 2.06
I22: P 1.49
R8: L 2.21
Q19: T 2.8; I 1.49
I2: K 3.35; C 1.93
K14: E 1.42; N 1.61
K3: C 2.86
Q7: A 1.79; V 2.33; F 2.84
K15: P 1.72
D5: H 1.64; F 2.33
E10: G 1.09; W 1.56
K17: P 1.79; Q 1.65

Variants of: B2
Assay: as above
Conditions: c terminus: a fixed tail appended

Protein stability index, by site and new letter:
V6: K 2.63; G 2.57; A 2.86; L 2.85; P 4.25; R 3.07; S 2.55; Y 1.72; I 3.76; W 4.09; E 3.14; D 1.35; T 2.61; H 2.85; F 2.71; N 3.92
G20: N 2.75; I 2.82; K 2.35; D 2.04; L 2.91; M 3.22; H 3.22; A 3.45; P 3.42; C 2.94; F 2.21
C15: S 3.9; I 3.26; M 4.25; E 3.04; Q 2.59; D 3.14; H 1.61; K 2.58; F 3.35; L 2.37; R 2.91; Y 2.42; N 4.23; T 3.74; V 2.5; W 3.09
G9: S 3.21; M 3.93; K 2.98; H 2.74; W 3.39; F 2.38; A 2.32; R 3.64; C 1.88; E 2.66; D 3; I 3.19; Y 3.79; T 3.5
A14: V 2.55; L 2.31; K 1.9; Y 2.65; H 1.86; Q 1.12; I 2.87; T 3.17; G 2.51; M 3.53; W 2.01; D 1.98; R 2.34; E 1.47; C 2.65; P 2.68
F12: G 2.17; T 3.71; K 1.81; M 2.61; L 1.79; E 1.72; D 2.2; W 2.6; C 1.53; V 2.77; N 2.67; P 1.8; S 3.05; I 3.98; Y 2.02; R 2.21
T17: G 1.94; S 3.16; M 3.48; P 2.64; I 4.6; N 4.51; Q 3.69; H 3.72; L 3.17; V 3.2; K 4.32; C 2.27; D 2.27; F 3.49; R 3.53
T13: Y 3.95; M 2.39; S 1.28; L 2.11; Q 2.47; P 3.32; H 3.07; V 2.64; F 2.81; C 2.13; I 1.31; D 3.61; K 3.17; N 1.86
D10: L 2.26; I 3.11; H 3.8; W 2.4; C 2.56; E 3.23; Y 2.44; R 2.3; V 2.91; N 1.59; K 3.54; M 3.29; T 2.71
D18: K 4.11; G 3.08; P 3.31; R 5.42; Y 3.05; N 3.07; V 3.85; A 4.82; S 4.67; W 3.08; C 2.02; T 2.72; L 2.09; F 4.13
H5: P 3.52; T 3.55; W 2.46; S 3.48; M 5.14; R 3.65; L 1.99; C 2.12; F 2.88; I 4.16; D 3.02; K 1.19
R19: T 2.77; W 3.11; H 1.81; I 2.96; N 3.56; G 3.25; A 2.01; S 2.97; M 2.32; V 2.56; Y 2.32; C 2.48; E 3.52; Q 1.92; P 4.49; D 3.29; K 3.78
T2: K 2.06; W 2.38; P 3.12; G 3.03; I 2.48; C 2; F 3.64; S 2.88; E 2.31; R 2.24; D 2.1; Y 3.11; M 3.25
C8: V 2.48; W 2.41; L 3.14; D 3.33; A 3.3; I 2.51; Y 3.47; Q 3.4; F 2.28; E 3.57; T 2.44; P 2.4; N 3.4; R 3.18
L16: H 2.88; S 3.85; A 4.14; M 2.15; C 2.43; T 1.76; Q 3.06; E 1.89; K 3.12; R 2.33; Y 2.13; F 3.61; P 2.59; D 1.91; I 2.3
K4: Y 2.75; C 3.59; I 2.27; E 1.58; F 2.88; S 2.57; M 1.33; G 3.43; A 4.56; N 2.03; R 2.47; V 1.74; P 2.13; W 3.87; D 2.87; L 3.2; H 2.81; T 2.17
I3: E 2.6; N 2.55; A 1.28; D 3.11; R 2.22; Y 2.57; H 2.67; V 2.27; L 2.32; S 2.69; P 2.31; F 3.2; G 2.58; K 1.92; Q 2.49; T 3.18
V1: R 2.44; F 1.99; Y 3.81; H 2.87; A 2.57; S 3.58; P 1.33; Q 1.59; G 3.39; M 3.97; I 2.71; T 1.54; W 4.31; K 1.91; N 2.51; C 2.23; E 1.45
F11: S 2.05; G 1.8; E 2.9; D 1.46; K 2.13; N 2.85; C 1.91; I 4.45; Q 3.07; T 2.82; A 2.49; M 3.07; H 1.88; P 3.05; V 2.76; L 2.23; W 4.01; Y 2.81
A7: Y 3.2; D 2.43; P 1.72; T 2.88; E 2.69; C 1.98; M 2.95; S 1.57; L 2.33; Q 3.77; I 2.61; K 3.25
